Results taken from patent US20040086495.

Target: T1, phospho-BAD (recombinant BAD as GST-fusion protein, phosphorylated in vitro with PKA and [gamma-32P]ATP), Q61337
T1 chain: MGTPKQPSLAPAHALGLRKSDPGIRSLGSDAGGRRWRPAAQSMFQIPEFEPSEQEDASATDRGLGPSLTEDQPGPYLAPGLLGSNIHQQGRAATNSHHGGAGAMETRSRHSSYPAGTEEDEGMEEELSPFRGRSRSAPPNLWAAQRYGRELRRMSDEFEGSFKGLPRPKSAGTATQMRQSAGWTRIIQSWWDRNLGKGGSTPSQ

B1: PP2Cβ from bovine brain (protein phosphatase type 2C beta), recombinant, expressed in E. coli (protein)
chain: MGAFLDKPKTEKHNAHGAGNGLRYGLSSMQGWRVEMEDAHTAVVGIPHGLEDWSFFAVYDGHAGSRVANYCSTHLLEHITNNEDFRAAGKSGSALEPSVENVKNGIRTGFLKIDEYMRNFSDLRNGMDRSGSTAVGVMISPKHIYFINCGDSRAVLYRSGQVCFSTQDHKPCNPREKERIQNAGGSVMIQRVNGSLAVSRALGDYDYKCVDGKGPTEQLVSPEPEVYEILRAEEDEFIILACDGIWDVMSNEELCEFVKSRLEVSDDLENVCNWVVDTCLHKGSRDNMSIVLVCFSNAPKVSDEAMRKDSELDKYLESRVEEIMEKSGEEGMPDLAHVMRILSAENIPNLPPGGGLAGKRHVIEAVYSRLNPHRESDGGAGDLEDPW
- dephosphorylation of [32P]BAD by PP2C in vitro (SDS-PAGE, autoradiography): The dephosphorylation of phospho-BAD by PP2C is dependent as well on time and concentration.
- dephosphorylation of phospho-BAD sites by PP2C: Here it could be shown, that PP2C preferably dephosphorylates P-ser^155 compared to P-ser^112 and P-ser^136.
